Experiments:
[1] = target: T1, soluble recombinant rat NgR, amino acids 27 through 450, with 6xHis tag (rat); assay: not stated
T1 construct: 2a; made in HEK293F cells; also called Rat NgR 6x His; rNgR
T1 chain: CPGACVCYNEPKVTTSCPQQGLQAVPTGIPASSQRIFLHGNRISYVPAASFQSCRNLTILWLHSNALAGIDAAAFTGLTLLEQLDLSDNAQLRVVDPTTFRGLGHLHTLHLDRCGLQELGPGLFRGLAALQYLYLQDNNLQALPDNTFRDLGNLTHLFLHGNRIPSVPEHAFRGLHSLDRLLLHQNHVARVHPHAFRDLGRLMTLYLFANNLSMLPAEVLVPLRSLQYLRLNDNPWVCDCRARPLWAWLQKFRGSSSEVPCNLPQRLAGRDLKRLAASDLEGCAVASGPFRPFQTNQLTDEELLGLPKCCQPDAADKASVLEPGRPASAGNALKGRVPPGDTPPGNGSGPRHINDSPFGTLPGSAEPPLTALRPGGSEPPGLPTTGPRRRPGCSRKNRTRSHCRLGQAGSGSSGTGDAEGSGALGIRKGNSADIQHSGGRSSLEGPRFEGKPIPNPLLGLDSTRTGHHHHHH

[2] = target: T1, soluble recombinant rat NgR, amino …; assay: ELISA, rat NgR coated 0.2 µg/well
Description: (§1) To determine the specificity of the monoclonal antibodies produced in Example 1, an ELISA using NgR-Fc (a fusion protein comprising amino acids Met 1 to Ser 447 of the human NgR and a human Fc fragment (R&D Systems)) and rat NgR (SEQ ID NO. 2a), was performed. Both ligands were immobilized on 96-well microtiter plates (Nunc Maxisorb; 0.2 μg/well). As a blocking reagent 2% bovine serum albumin (BSA) in Tris-HCL, pH 7.2 was used for 2 h at room temperature. The monoclonal antibodies were used in concentrations starting at 10,000 ng/ml. Bound antibodies were detected with a secondary anti-mouse antibody labeled with horseradish peroxidase (Sigma) and developed using 3,3′,5,5′-tetramethylbenzidine substrate (TMB, Pierce) under standard conditions. mAb50 and mAb51 specifically bound to human NgR. […] In similar experiments, mAb50 and mAb51 also specifically bound to a polypeptide consisting of amino acids of the rat NgR.

[3] = target: T2, human recombinant NgR/Fc chimera (R&D Systems, Cat. Number 1208-NG) (human, UniProt Q9BZR6 27-447); assay: ELISA, human NgR-Fc coated 0.2 µg/well
T2 construct: range 1-447; Bought from R&D Systems; also called hNgR-Fc; human NgR-Fc; not shown: human Fc fragment
T2 sequence (looked up): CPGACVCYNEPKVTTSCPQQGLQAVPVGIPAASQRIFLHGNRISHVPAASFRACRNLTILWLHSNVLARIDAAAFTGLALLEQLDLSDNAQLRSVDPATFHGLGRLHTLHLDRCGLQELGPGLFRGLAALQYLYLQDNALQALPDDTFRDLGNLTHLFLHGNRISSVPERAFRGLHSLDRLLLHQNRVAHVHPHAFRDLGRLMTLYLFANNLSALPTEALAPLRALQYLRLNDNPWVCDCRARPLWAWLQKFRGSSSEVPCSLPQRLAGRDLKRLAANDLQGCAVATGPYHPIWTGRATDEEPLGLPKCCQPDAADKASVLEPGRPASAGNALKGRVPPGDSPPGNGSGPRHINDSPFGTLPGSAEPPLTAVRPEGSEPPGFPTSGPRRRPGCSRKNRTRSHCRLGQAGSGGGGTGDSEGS

[4] = target: T2, human recombinant NgR/Fc chimera (R&D …); assay: Biacore, antibody captured, hNgR-Fc chimera as antigen
[5] = target: T1, soluble recombinant rat NgR, amino …; assay: ELISA, rat NgR coated 0.2 µg/well, anti-mouse-HRP, TMB
Description: as §1

[6] = target: T2, human recombinant NgR/Fc chimera (R&D …); assay: ELISA, human NgR-Fc coated 0.2 µg/well, anti-mouse-HRP, TMB
Description: as §1

[7] = target: T2, human recombinant NgR/Fc chimera (R&D …); assay: competition ELISA, human NgR-Fc coated 0.2 µg/well, blocked ligand AP-Nogo66 at 0.15 nM, AttoPhos, RFU (30min-0min)
Description: To further characterize the monoclonal antibodies a competition assay similar to the binding assay of Example 2 was used to test the ability of the mAbs produced in Example 1 to inhibit AP-Nogo66 binding to human NgR-Fc. Human NgR-Fc (0.2 μg/well) was immobilized on 96-well microtiter plates (Nunc Maxisorb) in 50 mM Na-carbonate buffer pH 9 over night at 4° C. followed by a 2 h blocking step with 2% BSA in Tris-HCL, pH 7.2 at room temperature. The wells received a constant concentration of AP-Nogo66 (final concentration 0.15 nM in Tris-HCL, pH 7.2 with 0.1% BSA) and increasing concentrations of the mAbs. Plates were incubated for 90 min at room temperature. During each incubation step plates were washed with washing buffer (10 mM Tris-HCl, pH7.2 and 0.05% Tween20). Binding of AP-Nogo66 was detected with the AttoPhos substrate (Roche) and the fluorescence units were measured in the Polarstar (BMG) instrument.

IC50 [1]: ~30 pM
EC50 [2]: < 0.02 µg/mL
EC50 [3]: < 0.02 µg/mL
Kd [4]: 108 pM
koff [4]: 5.88e-05 s⁻¹
kon [4]: 544000 M⁻¹ s⁻¹
EC50 (read off the curve) [5]: ~0.03 µg/mL
EC50 (read off the curve) [6]: ~0.006 µg/mL
IC50 (read off the curve) [7]: ~2000 pM
B1: mAb51 (antibody, IgG2a, V domains shown)
VH: QVQLQQPGAELVKPGASVKLSCKASGYTFITYWMHWMKQRPGQGLEWIGEIDPSDSYTDYNQKFKGKATLTVDKSSSTAYMQLSSLTSEDSAVYYCARGSNVLYVLDYWGQGTSVTVSS
VL: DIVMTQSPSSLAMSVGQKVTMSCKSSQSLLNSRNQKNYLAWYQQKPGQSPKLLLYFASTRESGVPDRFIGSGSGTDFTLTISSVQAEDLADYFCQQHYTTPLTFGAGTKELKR
notes: also called Antibody Clone 51; ATCC No. PTA-8384
